Consider one substance from publication PMC5805371.

The target in the assay is MYC-tagged TNPO1 (UniProt Q92973). The experiment in a line: co-immunoprecipitation with luciferase readout (anti-MYC IP). Particulars: HEK293 cells expressing MYC-TNPO1 and PER1PY/Cys_mut-LUCIFERASE; control IgG IP (filled bar) est. 0.75 ± 0.19; n.s.; means ± SD of five; read off a plot.
Chain of UniProt Q92973 (Q92973 whole entry): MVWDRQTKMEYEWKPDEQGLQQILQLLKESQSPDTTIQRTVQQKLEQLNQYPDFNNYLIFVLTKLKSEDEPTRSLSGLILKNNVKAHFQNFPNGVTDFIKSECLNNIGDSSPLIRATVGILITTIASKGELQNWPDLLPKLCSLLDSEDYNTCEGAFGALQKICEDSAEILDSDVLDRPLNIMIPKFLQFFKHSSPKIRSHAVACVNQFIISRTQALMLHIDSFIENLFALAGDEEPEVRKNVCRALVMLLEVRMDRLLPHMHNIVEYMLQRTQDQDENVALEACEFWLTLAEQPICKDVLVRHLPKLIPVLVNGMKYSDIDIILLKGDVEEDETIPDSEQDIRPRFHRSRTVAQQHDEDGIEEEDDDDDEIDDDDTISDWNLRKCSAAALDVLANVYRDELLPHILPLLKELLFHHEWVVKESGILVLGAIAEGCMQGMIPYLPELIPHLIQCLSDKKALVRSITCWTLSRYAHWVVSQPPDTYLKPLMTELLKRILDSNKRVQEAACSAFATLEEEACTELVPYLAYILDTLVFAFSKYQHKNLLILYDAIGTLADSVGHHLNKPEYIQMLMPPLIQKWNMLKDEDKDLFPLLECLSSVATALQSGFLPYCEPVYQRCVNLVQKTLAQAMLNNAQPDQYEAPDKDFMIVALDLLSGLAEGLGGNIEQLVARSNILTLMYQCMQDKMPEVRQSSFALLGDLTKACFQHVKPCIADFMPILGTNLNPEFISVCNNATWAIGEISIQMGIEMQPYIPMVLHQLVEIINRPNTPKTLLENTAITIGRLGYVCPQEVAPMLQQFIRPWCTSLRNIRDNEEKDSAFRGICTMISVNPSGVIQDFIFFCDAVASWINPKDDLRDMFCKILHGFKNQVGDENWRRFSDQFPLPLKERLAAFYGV

Regarding “PER1 fused to full-length firefly luciferase (HEK293) (from UniProt O15534) P883A; Y884A; P935A; Y936A; seven C-terminal Cys to Ala (positions not printed)”, the response came to 0.75.
